Experimental data from US20060253917A1 (published 2006).

T1: OsRAP1B aa 30-180 (Oryza sativa, UniProt Q10CQ1 30-180)
T1 construct: bait, Gal4 DBD fusion; also called PN20232
T1 sequence: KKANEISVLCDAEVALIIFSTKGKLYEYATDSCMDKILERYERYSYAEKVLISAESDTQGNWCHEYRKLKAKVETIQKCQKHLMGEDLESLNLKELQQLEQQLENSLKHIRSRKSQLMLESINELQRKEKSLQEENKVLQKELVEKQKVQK

T2: OsMADS1 aa 73-239 (Oryza sativa, UniProt A2XDY1 73-239)
T2 construct: prey, AD fusion; also called PN19788
T2 sequence: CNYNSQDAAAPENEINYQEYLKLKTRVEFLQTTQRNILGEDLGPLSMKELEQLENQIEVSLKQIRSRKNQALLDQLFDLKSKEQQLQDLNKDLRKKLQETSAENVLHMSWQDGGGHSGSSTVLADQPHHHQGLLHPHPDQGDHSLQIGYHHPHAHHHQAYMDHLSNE

T3: OsMADS5 aa 108-225 (Oryza sativa, UniProt A2Y9P0 108-225)
T3 construct: prey, AD fusion; also called PN20770
T3 sequence: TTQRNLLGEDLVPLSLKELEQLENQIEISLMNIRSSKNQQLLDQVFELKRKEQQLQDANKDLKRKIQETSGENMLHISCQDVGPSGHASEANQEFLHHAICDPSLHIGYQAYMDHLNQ

T4: OsMADS8 aa 79-248 (Oryza sativa, UniProt Q9SAR1 79-248)
T4 construct: prey, AD fusion; also called PN20778
T4 sequence: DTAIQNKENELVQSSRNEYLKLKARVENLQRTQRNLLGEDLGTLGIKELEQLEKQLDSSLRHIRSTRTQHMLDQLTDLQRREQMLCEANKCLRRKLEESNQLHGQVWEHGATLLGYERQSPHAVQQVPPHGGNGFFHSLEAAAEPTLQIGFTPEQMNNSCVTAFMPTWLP

T5: OsMADS45 aa 98-249 (Oryza sativa, UniProt P0C5B0 98-249)
T5 construct: prey, AD fusion; also called PN20231
T5 sequence: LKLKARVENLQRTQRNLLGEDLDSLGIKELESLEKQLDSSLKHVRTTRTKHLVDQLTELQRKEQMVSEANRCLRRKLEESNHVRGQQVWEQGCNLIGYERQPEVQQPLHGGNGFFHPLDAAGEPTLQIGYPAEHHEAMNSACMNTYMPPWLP

T6: OsMADS45 aa 69-249 (Oryza sativa, UniProt P0C5B0 69-249)
T6 construct: prey, AD fusion; also called PN20231
T6 sequence: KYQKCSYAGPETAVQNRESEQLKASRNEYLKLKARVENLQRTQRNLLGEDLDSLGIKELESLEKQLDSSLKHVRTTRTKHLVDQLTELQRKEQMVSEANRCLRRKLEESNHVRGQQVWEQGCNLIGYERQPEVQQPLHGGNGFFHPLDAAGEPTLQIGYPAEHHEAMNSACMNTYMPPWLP


Key:
OsRAP1B aa 30-180 = molecular target: T1, OsRAP1B aa 30-180; assay: Y2H; input trait library
Method in brief: (§1)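 Protein-protein interactions were detected with an automated, high-throughput yeast two-hybrid assay provided by Myriad Genetics Inc. (Salt Lake City, Utah). A bait clone encoding a defined amino-acid fragment of a rice protein was screened against a rice prey library, either the input trait or the output trait library. Prey clones were retrieved, and their encoding sequences were compared by BLAST against databases to identify the interacting proteins.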

OsMADS1 aa 73-239 = molecular target: T2, OsMADS1 aa 73-239; assay: Y2H; output trait library
Method in brief: as §1

OsMADS5 aa 108-225 = molecular target: T3, OsMADS5 aa 108-225; assay: Y2H; output trait library
Method in brief: as §1

OsMADS8 aa 79-248 = molecular target: T4, OsMADS8 aa 79-248; assay: Y2H; output trait library
Method in brief: as §1

OsMADS45 aa 98-249 = molecular target: T5, OsMADS45 aa 98-249; assay: Y2H; output trait library
Method in brief: as §1

OsMADS45 aa 69-249 = molecular target: T6, OsMADS45 aa 69-249; assay: Y2H; output trait library
Method in brief: as §1

OsBAA81880 aa 2-168 = molecular target: T7, OsBAA81880 aa 2-168 (Oryza sativa, UniProt Q9XJ66 2-168); assay: Y2H; output trait library
T7 construct: prey, AD fusion; also called PN20837; O. sativa MADS box-like protein
T7 sequence (Q9XJ66 2-168): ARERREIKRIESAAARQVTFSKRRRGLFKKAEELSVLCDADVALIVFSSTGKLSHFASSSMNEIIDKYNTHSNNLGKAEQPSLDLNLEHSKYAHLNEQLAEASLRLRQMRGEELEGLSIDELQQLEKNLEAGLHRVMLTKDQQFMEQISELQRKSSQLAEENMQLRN
Method in brief: as §1

OsBAA81880 aa 24-203 = molecular target: T8, OsBAA81880 aa 24-203 (Oryza sativa, UniProt Q9XJ66 24-203); assay: Y2H; output trait library
T8 construct: prey, AD fusion; also called PN20837
T8 sequence (Q9XJ66 24-203): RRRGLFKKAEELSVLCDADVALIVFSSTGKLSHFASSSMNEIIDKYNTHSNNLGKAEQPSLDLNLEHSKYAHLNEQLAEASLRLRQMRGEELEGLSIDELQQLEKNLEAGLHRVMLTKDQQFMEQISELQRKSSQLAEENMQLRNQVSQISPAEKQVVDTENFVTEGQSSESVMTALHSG
Method in brief: as §1

binding result (OsRAP1B aa 30-180) | binding result (OsMADS1 aa 73-239) | binding result (OsMADS5 aa 108-225) | binding result (OsMADS8 aa 79-248) | binding result (OsMADS45 aa 98-249) | binding result (OsMADS45 aa 69-249) | binding result (OsBAA81880 aa 2-168) | binding result (OsBAA81880 aa 24-203) | Binder
binds | – | – | – | – | – | – | – | OsMADS5 aa 106-225 (other, prey, AD fusion; also called PN20770) LQTTQRNLLGEDLVPLSLKELEQLENQIEISLMNIRSSKNQQLLDQVFELKRKEQQLQDANKDLKRKIQETSGENMLHISCQDVGPSGHASEANQEFLHHAICDPSLHIGYQAYMDHLNQ
– | binds | binds | binds | binds | binds | binds | binds | OsRAP1B aa 125-235 (other, bait, Gal4 DBD fusion; also called PN20232) LQQLEQQLENSLKHIRSRKSQLMLESINELQRKEKSLQEENKVLQKELVEKQKVQKQQLQWDQTQPQTISSSSSFMMREALPTTNISNYPAAAGERIEDVPAGQPQHVRIG
